Test results as given in article PMC3597684.
Numbering of substitutions follows the chain as printed.

B1: sopC2 (dsDNA)
DNA 1: ATTAGTCTGGGACCACGGTCCCACTCGTAT
DNA 2: ATACGAGTGGGACCGTGGTCCCAGACTAAT
B2: parS66 (Pput parS; assignment from listing order) (dsDNA)
DNA 1: ATTAGTCTGTTCCACGTGGAACACTCGTAT
DNA 2: ATACGAGTGTTCCACGTGGAACAGACTAAT

Assays:
Experiment in all cases: EMSA
SopB-R219K = target: T1, SopB-R219K (plasmid F (Escherichia coli), UniProt P62558 1-323, R219K)
T1 sequence: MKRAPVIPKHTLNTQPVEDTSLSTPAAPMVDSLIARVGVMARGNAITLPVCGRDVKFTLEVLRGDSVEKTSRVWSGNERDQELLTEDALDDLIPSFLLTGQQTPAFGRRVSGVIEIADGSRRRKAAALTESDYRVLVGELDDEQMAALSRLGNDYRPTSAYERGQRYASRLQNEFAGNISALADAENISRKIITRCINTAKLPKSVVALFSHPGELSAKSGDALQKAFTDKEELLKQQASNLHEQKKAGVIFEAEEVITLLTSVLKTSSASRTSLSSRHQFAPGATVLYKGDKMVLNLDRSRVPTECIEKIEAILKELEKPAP

SopB-R219A = target: T2, SopB-R219A (plasmid F (Escherichia coli), UniProt P62558 1-323, R219A)
T2 sequence: T1 sequence with K219A

SopB (SopB-G324) = target: T3, SopB (SopB-G324) (plasmid F (Escherichia coli), UniProt P62558 1-323)
T3 sequence: T1 sequence with K219R

[1] = target: T4, ParBPput-R194A (ParBPput-G291-R194A) (Pseudomonas putida, UniProt P0A152 1-290, R194A)
T4 sequence: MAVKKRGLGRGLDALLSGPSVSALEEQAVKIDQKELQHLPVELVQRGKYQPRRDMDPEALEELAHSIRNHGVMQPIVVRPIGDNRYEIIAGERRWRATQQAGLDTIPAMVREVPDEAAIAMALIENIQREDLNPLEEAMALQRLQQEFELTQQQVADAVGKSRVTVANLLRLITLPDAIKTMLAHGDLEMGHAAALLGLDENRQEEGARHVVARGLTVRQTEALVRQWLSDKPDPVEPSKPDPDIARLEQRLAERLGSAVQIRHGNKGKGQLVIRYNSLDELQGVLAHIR

Binder | binding signal (SopB-R219K) | binding signal (SopB-R219A) | binding result (SopB (SopB-G324)) | binding result [1]
B1 | ~100 fold loss vs wild-type SopB | > 200 fold loss vs wild-type SopB | binds | –
B2 | – | – | – | no binding
